Experimental data: PMC11063955, “A multiplexed time-resolved fluorescence resonance energy transfer ultrahigh-throughput screening assay for targeting the SMAD4–SMAD3–DNA complex” (Journal of Molecular Cell Biology, 2023)

Target: T1, His-tagged SMAD4 WT (Mothers against decapentaplegic homolog 4) (UniProt Q13485 1-552)
T1 sequence (looked up): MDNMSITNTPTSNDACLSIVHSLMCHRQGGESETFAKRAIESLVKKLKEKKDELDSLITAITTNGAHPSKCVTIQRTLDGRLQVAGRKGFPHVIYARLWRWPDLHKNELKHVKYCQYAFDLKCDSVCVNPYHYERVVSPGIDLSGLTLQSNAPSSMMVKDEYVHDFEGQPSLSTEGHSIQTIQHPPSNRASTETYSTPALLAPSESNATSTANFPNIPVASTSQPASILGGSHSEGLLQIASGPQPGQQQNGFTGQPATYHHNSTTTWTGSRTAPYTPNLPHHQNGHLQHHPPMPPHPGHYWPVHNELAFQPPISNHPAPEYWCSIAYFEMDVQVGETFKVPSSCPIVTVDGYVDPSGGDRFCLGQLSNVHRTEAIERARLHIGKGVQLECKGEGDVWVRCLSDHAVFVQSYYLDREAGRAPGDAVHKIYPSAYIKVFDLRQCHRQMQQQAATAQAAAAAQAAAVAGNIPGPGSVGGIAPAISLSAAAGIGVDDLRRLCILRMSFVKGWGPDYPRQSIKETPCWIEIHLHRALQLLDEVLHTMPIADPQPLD
Assay: cell-based or functional assay

- SBE4-luciferase reporter activity upon TGFβ (10 ng/ml) stimulation, HEK293T cells with endogenous SMAD4 and SMAD3, fold-of-change: > 3 fold
B1: Flag-tagged SMAD3 WT (natural protein, UniProt P84022 1-425, looked up)
chain: MSSILPFTPPIVKRLLGWKKGEQNGQEEKWCEKAVKSLVKKLKKTGQLDELEKAITTQNVNTKCITIPRSLDGRLQVSHRKGLPHVIYCRLWRWPDLHSHHELRAMELCEFAFNMKKDEVCVNPYHYQRVETPVLPPVLVPRHTEIPAEFPPLDDYSHSIPENTNFPAGIEPQSNIPETPPPGYLSEDGETSDHQMNHSMDAGSPNLSPNPMSPAHNNLDLQPVTYCEPAFWCSISYYELNQRVGETFHASQPSMTVDGFTDPSNSERFCLGLLSNVNRNAAVELTRRHIGRGVRLYYIGGEVFAECLSDSAIFVQSPNCNQRYGWHPATVCKIPPGCNLKIFNNQEFAALLAQSVNQGFEAVYQLTRMCTIRMSFVKGWGAEYRRQTVTSTPCWIELHLNGPLQWLDKVLTQMGSPSIRCSSVS
